How the values were obtained:
[1] = target: pp32, dephosphorylated (murine) (UniProt O35381)
[2] = target: pp32 (32 kDa murine nuclear phosphoprotein from A20 cells) (murine) (UniProt O35381)
[3] = target: pp35 (35 kDa murine nuclear phosphoprotein purified from A20 cells) (murine)
[4] = target: pp35, dephosphorylated (murine)

32P incorporation (stoichiometry of phosphorylation) [1] [mol/mol] | 32P incorporation (stoichiometry of phosphorylation) [2] [mol/mol] | 32P incorporation (stoichiometry of phosphorylation) [3] [mol/mol] | 32P incorporation (stoichiometry of phosphorylation) [4] [mol/mol] | Substance
< 0.01 |  |  |  | A 431 cell epidermal growth factor receptor kinase (from UniProt P00533) (enzyme)
0.08 | < 0.01 | 0.05 | 0.76 | casein kinase II from bovine thymus (enzyme)
< 0.01 | < 0.01 | < 0.01 | < 0.01 | protein kinase C from rat brain (80 kDa isoenzyme)

Reference: patent publication US5726018
